Target: Affinity-purified MHC class I molecules K^b with human β2m (mouse (H-2^b); human)

B1: K^b/S208-215-binding peptide 1 of HBsAgadw2 (IVSPFIPL) (peptide)
peptide: IVSPFIPL
  IC50: 773 nM

— patent publication US20060233832A1 (Rhein Biotech Gesellschaft Fur Neue Biotechnologische …, published 2006)
